# Source: paper PMC6028389, “Dedicated surveillance mechanism controls G-quadruplex forming non-coding RNAs in human mitochondria”
# B1: tRNA-like (structured_RNA)
# RNA: GGGCUGUGACUAGUAUGUUGAGUCCUGUAAGUAGGAGAGUGAUAUUUGAUCAGGAGAACGUGGUUACUAGCACCCA
# Target: T1, GRSF1 wild type (Homo sapiens, UniProt Q12849 118-480)
# T1 sequence: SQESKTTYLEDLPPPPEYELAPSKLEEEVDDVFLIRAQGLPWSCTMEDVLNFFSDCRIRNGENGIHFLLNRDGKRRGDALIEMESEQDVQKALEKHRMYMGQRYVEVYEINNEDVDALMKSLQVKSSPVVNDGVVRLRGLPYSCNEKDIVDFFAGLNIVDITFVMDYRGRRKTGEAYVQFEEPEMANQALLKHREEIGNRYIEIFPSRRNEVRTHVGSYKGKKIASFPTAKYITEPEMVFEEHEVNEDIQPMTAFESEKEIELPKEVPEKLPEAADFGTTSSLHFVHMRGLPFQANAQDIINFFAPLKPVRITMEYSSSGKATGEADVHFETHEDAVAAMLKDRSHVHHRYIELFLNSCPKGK
# Assay: EMSA; 75 ug/ml heparin; EMSA: 5 nM RNA, 0-2560 nM protein, 10 mM Tris-HCl pH 8.0, 2.5 mM KCl, 30 mM NaCl, 1 mM EDTA, 0.2 mM DTT, 75 ug/ml heparin, 30 min at 30 C; 7% PAGE
# Settings: protein: recombinant; tags: N-terminal 6xHis-SUMO, cleaved by SUMO protease; label: 5'-32P; predicted secondary structure; G4-forming
binder,measurement,value
B1,Kd,~0.1 µM
